Measurements reported in US20210221874A1.

Target: anthrax protective antigen, wild type PA83 (Bacillus anthracis) (UniProt P13423)
Sequence (P13423 30-764): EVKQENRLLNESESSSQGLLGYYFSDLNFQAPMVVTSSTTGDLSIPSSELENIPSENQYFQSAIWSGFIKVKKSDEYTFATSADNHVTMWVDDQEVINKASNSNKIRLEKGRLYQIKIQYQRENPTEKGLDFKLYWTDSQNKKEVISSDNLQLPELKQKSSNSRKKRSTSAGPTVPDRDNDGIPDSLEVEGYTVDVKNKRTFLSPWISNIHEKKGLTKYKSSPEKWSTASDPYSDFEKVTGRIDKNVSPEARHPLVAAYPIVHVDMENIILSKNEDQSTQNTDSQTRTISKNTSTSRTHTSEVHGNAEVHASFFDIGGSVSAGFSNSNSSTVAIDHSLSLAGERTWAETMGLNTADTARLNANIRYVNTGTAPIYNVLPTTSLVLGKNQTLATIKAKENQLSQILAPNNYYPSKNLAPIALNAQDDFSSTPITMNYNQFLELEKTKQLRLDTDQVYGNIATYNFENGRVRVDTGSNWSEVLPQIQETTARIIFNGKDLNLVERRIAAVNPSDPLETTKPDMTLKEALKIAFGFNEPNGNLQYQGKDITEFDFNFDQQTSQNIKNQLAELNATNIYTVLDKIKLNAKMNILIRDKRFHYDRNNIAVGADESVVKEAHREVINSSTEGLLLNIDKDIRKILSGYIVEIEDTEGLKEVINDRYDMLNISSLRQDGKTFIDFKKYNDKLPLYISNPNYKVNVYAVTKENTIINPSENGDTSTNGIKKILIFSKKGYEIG

“neutralizing anti-PA mouse monoclonal antibody 14B7” showed an IC50 (read off the curve) of 10 nM.
